{"source": "patent US6136598", "key": {"[1]": {"target": "Mus dunni endogenous virus (MDEV) receptor on M. dunni cells (Mus dunni)"}, "[2]": {"target": "Mus dunni endogenous virus (MDEV) receptor on M. dunni cells (Mus dunni)", "remark": "listed apart in the source"}, "[3]": {"target": "Mus dunni endogenous virus (MDEV) receptor on M. dunni cells (Mus dunni)", "remark": "listed apart in the source"}, "[4]": {"target": "Mus dunni endogenous virus (MDEV) receptor on primary human dermal fibroblasts (human)"}}, "data": [{"substance": "envelope protein of polytropic (MCF) virus strain 98D", "values": [{"measurement": "LAPSN titer, MDEV pseudotype on M. dunni cells infected with polytropic virus (6 × 10^5 on uninfected cells)", "setting": "[1]", "value": 400000, "unit": "FFU/ml"}]}, {"substance": "envelope protein of NZB xenotropic virus", "values": [{"measurement": "LAPSN titer, MDEV pseudotype on M. dunni cells infected with xenotropic virus (6 × 10^5 on uninfected cells)", "setting": "[1]", "value": 400000, "unit": "FFU/ml"}]}, {"substance": "envelope protein of amphotropic virus (AM-MLV)", "values": [{"measurement": "LAPSN titer, MDEV pseudotype on M. dunni cells infected with amphotropic virus (6 × 10^5 on uninfected cells)", "setting": "[1]", "value": 400000, "unit": "FFU/ml"}]}, {"substance": "Balb/c 3T3 IdU-induced retrovirus (BIRV) envelope", "values": [{"measurement": "LAPSN titer, BIRV pseudotype on M. dunni cells infected with MDEV (8 × 10^4 on uninfected cells)", "setting": "[1]", "value": 60000, "unit": "FFU/ml"}]}, {"substance": "envelope protein of amphotropic MLV strain 4070A", "values": [{"measurement": "Fold Interference, LAPSN(PA317) titer on dunni/N2 against dunni/N2 + MDEV (fold interference)", "setting": "[2]", "value": 1}]}, {"substance": "Mus dunni endogenous virus (MDEV) envelope protein", "values": [{"measurement": "Fold Interference, LAPSN(PD223) titer on dunni/N2 against dunni/N2 + MDEV (fold interference)", "setting": "[2]", "value": "> 20000"}, {"measurement": "log10 of the fold interference, LAPSN(MDEV) on dunni/LN cells infected with MDEV (log10 of the fold interference)", "setting": "[3]", "value": 5.5}, {"measurement": "LAPSN titer, MDEV pseudotype on M. dunni cells infected with MDEV (6 × 10^5 on uninfected cells)", "setting": "[1]", "value": 3, "unit": "FFU/ml"}, {"measurement": "inhibition of transduction, LAPSN(MDEV) on HDF cells infected with MDEV", "setting": "[4]", "value": 100, "unit": "fold"}]}]}
